Drawing on paper PMC4942345 (Organic & biomolecular chemistry, 2016), this text covers Kd for ten molecules.

The target of test [1] is human carbonic anhydrase II (human, UniProt P00918 1-260). Kind of test: SPR. (In SPR one partner is held on a chip, and binding of the other changes the refractive index at the surface.)
Test [2] addresses human carbonic anhydrase I (human, UniProt P00915 1-261). Kind of test: SPR.

By Kd is commonly meant the free concentration of one partner at which half of the binding sites on the other are occupied at equilibrium, for simple one-to-one binding.

Primed or numbered codes have the meaning given here. Where no end group is shown, it is not given here. [ ]: non-standard residue; d: D form. The star is where a group is joined. 4‑CBS″ = 4-carboxybenzylsulfonamide on the N-terminus, O=C(O)c1ccc(CS(=O)(=O)*)cc1; 4‑CBS = 4-carboxybenzylsulfonamide, O=C(O)c1ccc(CS(=O)(=O)*)cc1

Sequence of human carbonic anhydrase I (P00915 whole entry): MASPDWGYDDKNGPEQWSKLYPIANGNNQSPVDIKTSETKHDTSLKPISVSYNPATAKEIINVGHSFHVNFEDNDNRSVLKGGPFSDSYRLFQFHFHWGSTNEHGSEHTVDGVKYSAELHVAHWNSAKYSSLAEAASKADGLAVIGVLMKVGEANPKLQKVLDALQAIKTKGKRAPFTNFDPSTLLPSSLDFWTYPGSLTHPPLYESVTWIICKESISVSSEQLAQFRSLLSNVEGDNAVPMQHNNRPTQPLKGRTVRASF

As for {4‑CBS″}-[dD][dV][dE][dY][dE]-NH2 [4-CBS-dveye], the Kd worked out at 97 nM in test [1] and 121 nM in test [2].
The matching figures for {4‑CBS″}-[dD][dV][dD][dD][dL]-NH2 [4-CBS-dvddl]: 156 nM and 137 nM.
Regarding {4‑CBS}-[dD][dV][dD][dV][dL] [4-CBS-dvdvl], the results for the equilibrium dissociation constant (Kd) in test [1] and in test [2] were 82 nM and 83 nM, respectively.
With {4‑CBS″}-[dD][dV][dE][dV][dL]-NH2 [4-CBS-dvevl], the Kd in test [1] was found to be 82 nM; in test [2], 151 nM.
For {4‑CBS}-[dD][dL][dD][dD][dW] [4-CBS-dlddw] the same measures were 22 nM and 25 nM.
The matching figures for {4‑CBS″}-[dD][dV][dD][dD][dY]-NH2 [4-CBS-dvddy]: 82 nM and 102 nM.
The matching figures for {4‑CBS″}-[dD][dV][dD][dE][dY]-NH2 [4-CBS-dvdey]: 63 nM and 55 nM.
As to {4‑CBS″}-[dD][dA][dD][dV][dL]-NH2 [4-CBS-dadvl], the results for the Kd in test [1] and in test [2] were 185 nM and 130 nM, respectively.
For {4‑CBS″}-[dD][dL][dE][dE][dY]-NH2 [4-CBS-dleey] the same measures were 88 nM and 116 nM.
For {4‑CBS}-LKEYD [4-CBS-LKEYD] the same measures were 59 nM and 81 nM.
